± gives the standard deviation of the averaged measurements.
B1: library; a variant is named by its letters at N, in order (parent)
chain: GCUGUCACCGGUGUAUUACCCUAGUGGUCGACCGGUCUGAUGAGUCUNNNNNNAGACGAAACAGC

Columns and labels:
hypoxanthine [1] = variants of: B1; assay: normalized RNA/DNA level with ligand (relative to sTRSVctl = 100) (log10 (% of sTRSVctl)); ligand: hypoxanthine (xanthine aptamer); higher = less ribozyme self-cleavage, higher mRNA level; conditions: ligand concentration (+) RNA-Seq: 5 mM, HEK293T, reporter: mCherry (pCS4076), ligand present: yes
Outline: (§1)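 Only sequences with at least 100 DNA reads were analyzed, from HEK293T cells transfected with 4 µg per 6-well well of ribozyme switch library plasmids 72 h before RNA extraction with EDTA. Any ligand was added 1 h before transfection. RNA level was defined as RNA over DNA reads, normalized to a spiked-in non-cleaving sequence or to the top sequences, then scaled and log-transformed. The top set was 25 sequences, and the scaling was ×100 followed by log10.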

hypoxanthine [2] = variants of: B1; assay: normalized RNA/DNA level without ligand (relative to sTRSVctl = 100) (log10 (% of sTRSVctl)); ligand: hypoxanthine (xanthine aptamer); higher = less ribozyme self-cleavage, higher mRNA level; conditions: HEK293T, reporter: mCherry (pCS4076), ligand present: no
Outline: as §1

| Variant | normalized RNA/DNA level with ligand (log10) (hypoxanthine [1]) | normalized RNA/DNA level without ligand (log10) (hypoxanthine [2]) |
| --- | --- | --- |
| GCUGUCACCGGUGUAUUACCCUAGUGGUCGACCGGUCUGAUGAGUCUAUUCCCAGACGAAACAGC [AUUCCC] | 1.9 ± 0.031 | 1.87 ± 0.03 |
| GCUGUCACCGGUGUAUUACCCUAGUGGUCGACCGGUCUGAUGAGUCUAUUCCAAGACGAAACAGC [AUUCCA] | 1.92 ± 0.02 | 1.86 ± 0.042 |
| GCUGUCACCGGUGUAUUACCCUAGUGGUCGACCGGUCUGAUGAGUCUCUUCAUAGACGAAACAGC [CUUCAU] | 1.921 ± 0.0074 | 1.88 ± 0.067 |
| GCUGUCACCGGUGUAUUACCCUAGUGGUCGACCGGUCUGAUGAGUCUCUUCAAAGACGAAACAGC [CUUCAA] | 1.959 ± 0.013 | 1.82 ± 0.05 |
| GCUGUCACCGGUGUAUUACCCUAGUGGUCGACCGGUCUGAUGAGUCUCUUCAGAGACGAAACAGC [CUUCAG] | 1.92 ± 0.08 | 1.84 ± 0.07 |
| GCUGUCACCGGUGUAUUACCCUAGUGGUCGACCGGUCUGAUGAGUCUUUUCCGAGACGAAACAGC [UUUCCG] | 1.99 ± 0.063 | 1.83 ± 0.07 |
| GCUGUCACCGGUGUAUUACCCUAGUGGUCGACCGGUCUGAUGAGUCUUUUCCAAGACGAAACAGC [UUUCCA] | 1.95 ± 0.037 | 1.894 ± 0.0032 |
| GCUGUCACCGGUGUAUUACCCUAGUGGUCGACCGGUCUGAUGAGUCUUUUCCUAGACGAAACAGC [UUUCCU] | 2.05 ± 0.069 | 1.9175 ± 0.00088 |
| GCUGUCACCGGUGUAUUACCCUAGUGGUCGACCGGUCUGAUGAGUCUUUUCCCAGACGAAACAGC [UUUCCC] | 1.99 ± 0.024 | 1.96 ± 0.039 |
| GCUGUCACCGGUGUAUUACCCUAGUGGUCGACCGGUCUGAUGAGUCUGUUCGAAGACGAAACAGC [GUUCGA] | 1.95 ± 0.043 | 1.76 ± 0.023 |
| GCUGUCACCGGUGUAUUACCCUAGUGGUCGACCGGUCUGAUGAGUCUGUUCGCAGACGAAACAGC [GUUCGC] | 1.97 ± 0.025 | 1.96 ± 0.048 |
| GCUGUCACCGGUGUAUUACCCUAGUGGUCGACCGGUCUGAUGAGUCUGUUCGGAGACGAAACAGC [GUUCGG] | 1.908 ± 0.019 | 1.604 ± 0.0043 |
| GCUGUCACCGGUGUAUUACCCUAGUGGUCGACCGGUCUGAUGAGUCUAUUCAGAGACGAAACAGC [AUUCAG] | 1.87 ± 0.053 | 1.58 ± 0.025 |
| GCUGUCACCGGUGUAUUACCCUAGUGGUCGACCGGUCUGAUGAGUCUAUUCAAAGACGAAACAGC [AUUCAA] | 1.91 ± 0.047 | 1.82 ± 0.038 |
| GCUGUCACCGGUGUAUUACCCUAGUGGUCGACCGGUCUGAUGAGUCUAUUCACAGACGAAACAGC [AUUCAC] | 1.953 ± 0.019 | 1.891 ± 0.0042 |
| GCUGUCACCGGUGUAUUACCCUAGUGGUCGACCGGUCUGAUGAGUCUAUUCUAAGACGAAACAGC [AUUCUA] | 1.92 ± 0.041 | 1.84 ± 0.062 |
| GCUGUCACCGGUGUAUUACCCUAGUGGUCGACCGGUCUGAUGAGUCUGUUCAUAGACGAAACAGC [GUUCAU] | 1.908 ± 0.016 | 1.783 ± 0.012 |
| GCUGUCACCGGUGUAUUACCCUAGUGGUCGACCGGUCUGAUGAGUCUGUUCACAGACGAAACAGC [GUUCAC] | 1.96 ± 0.05 | 1.85 ± 0.023 |
| GCUGUCACCGGUGUAUUACCCUAGUGGUCGACCGGUCUGAUGAGUCUGUUCAGAGACGAAACAGC [GUUCAG] | 1.82 ± 0.054 | 1.55 ± 0.057 |
| GCUGUCACCGGUGUAUUACCCUAGUGGUCGACCGGUCUGAUGAGUCUCUUCGCAGACGAAACAGC [CUUCGC] | 1.954 ± 0.0084 | 1.88 ± 0.034 |
| GCUGUCACCGGUGUAUUACCCUAGUGGUCGACCGGUCUGAUGAGUCUCUUCGUAGACGAAACAGC [CUUCGU] | 2.028 ± 0.012 | 1.9 ± 0.045 |
